This note sets out measurements from patent US20140377284A1 (BIOCEROX PRODUCTS B V, published 2014).

For assay [1], the target named is T1, human CD134 (full-length, on cells) (human, UniProt P43489 29-277).
T1 construct: also called OX40; TNFRSF4
T1 sequence: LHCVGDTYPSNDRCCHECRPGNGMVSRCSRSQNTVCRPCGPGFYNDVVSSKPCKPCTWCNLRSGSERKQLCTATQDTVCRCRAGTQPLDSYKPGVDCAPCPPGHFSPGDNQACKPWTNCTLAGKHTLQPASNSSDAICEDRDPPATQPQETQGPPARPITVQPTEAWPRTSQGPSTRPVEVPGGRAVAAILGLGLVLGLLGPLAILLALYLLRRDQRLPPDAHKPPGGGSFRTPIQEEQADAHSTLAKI
Nature of the assay: flow cytometry, OX40L 10.0 µg/mL with anti-polyhistidine antibody. As to the method:
PHA-stimulated (at 10 μg/mL for 1 day; see above) human CD134 expressing T lymphocytes were generated. […] After extensive washing in PBS/BSA/NaN₃, cells were fixed in 2% formaldehyde in PBS/BSA/NaN₃ for 30 minutes at 4° C.

Assay [2] deals with T2, recombinant human CD134:human Fcγ (IgG1) fusion protein (human, UniProt P01857-1 100-330 = IgG part, limits assumed).
T2 construct: domain: Fcγ (IgG1); Bought (R&D Systems); also called rhuCD134
The assay is described as follows: ELISA, plate-bound CD134:Fc 50 ng/well. As to the method: Ninety six-wells flat-bottom ELISA plates (Corning) were coated with 50 ng/well recombinant human CD134:human Fcγ (IgG1) fusion protein (R&D Systems) in PBS o/n at 4° C. After extensive washing in PBS/0.05% Tween 20, plates were blocked in PBS/0.05% Tween 20/1% BSA fraction V (Roche) for 1 hour at RT. […] After extensive washing in PBS/0.05% Tween 20, binding of antibodies was determined with 1:5000 diluted horseradish peroxidase-conjugated goat anti-mouse (Fcγ specific) antibodies (Jackson ImmunoResearch) or with 1:4000 diluted horseradish peroxidase-conjugated goat anti-human κ-specific antibodies (Southern Biotech) for 1 hour at RT, followed by a ready-to-use solution of TMB substrate (Invitrogen) for colorimetric detection. After adding 1 M H₂SO₄, optical densities were measured at, a wavelength of 450 nm (reference wavelength of 655 nm) using a microplate reader (BioRad).
(In general: In an ELISA, binding on a coated surface is turned into a signal by an enzyme label.)

For assay [3], the target named is T1, human CD134 (full-length, on cells). Nature of the assay: flow cytometry, PHA-stimulated human CD4+ T lymphocytes (data not shown). As to the method: PHA-stimulated (at 10 μg/mL for 1 day; see above) human CD134 expressing T lymphocytes were generated. […] After extensive washing in PBS/BSA/NaN₃, cells were subsequently incubated with 1:50 diluted FITC-conjugated mouse anti-human IgG4 antibodies (Sigma) for 30 minutes at 4° C. […] After extensive washing in PBS/BSA/NaN₃, cells were fixed in 2% formaldehyde in PBS/BSA/NaN₃ for 30 minutes at 4° C. Binding of antibodies was measured using flow cytometry (FACSCalibur; BD Biosciences).
Background: Flow cytometry measures light scatter and fluorescence of single cells or particles in a stream.

Assay [4] has as its target T3, truncated human CD134 'truncated (tc) CRD4' construct (human, UniProt P43489 147-277).
T3 construct: also called truncated CRD4
T3 sequence: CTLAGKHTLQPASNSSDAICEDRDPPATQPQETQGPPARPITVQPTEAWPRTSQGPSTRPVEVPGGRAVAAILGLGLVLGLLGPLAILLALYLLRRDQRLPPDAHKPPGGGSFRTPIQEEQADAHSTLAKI
Nature of the assay: flow cytometry, transiently transfected 293-F cells (parental 12H3: binding completely absent on tcCRD4). The method, then: (§1) After 48-72 h, surface human CD134 expression on transfected cells was analyzed by FACS analysis. To this end, transfected cells were harvested and put at 1-2×10⁶ cells/mL in ice-chilled PBS/BSA/NaN₃. […] After extensive washing in PBS/BSA/NaN₃, cells were subsequently incubated with 1:200 diluted PE-conjugated goat anti-human IgG (Fcγ specific) antibodies (Jackson ImmunoResearch) for 30 minutes at 4° C. After extensive washing in PBS/BSA/NaN₃, cells were fixed in 2% formaldehyde in PBS/BSA/NaN₃ for 30 minutes at 4° C. Binding of antibodies was measured using flow cytometry (FACSCalibur; BD Biosciences).

Assay [5] concerns the target T4, human fibronectin-derived control peptide (extra type III structural domain) (human).
T4 construct: Synthesized by Pepscan Presto; coated on ELISA plates
T4 peptide: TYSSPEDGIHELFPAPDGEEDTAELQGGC
Nature of the assay: peptide ELISA. As to the method:
(§2) After adding 1 M […], optical densities was measured at a wavelength of 450 nm (reference wavelength of 655 nm) using a microplate reader (BioRad).
(§3) Ninety six-wells flat-bottom ELISA plates (Corning) were coated with 10 ng/well human CD134-derived peptide (synthesized by Pepscan Presto, Lelystad, The Netherlands), which corresponded to amino acid sequence of truncated CRD3 A1-module-CRD4 subdomain A1 module (see SEQ ID NO. 38) or with 10 ng/well human fibronectin-derived control peptide (synthesized by Pepscan Presto, Lelystad, The Netherlands), which corresponded to amino acid sequence of extra type III structural domain (see SEQ ID NO. 37) in PBS o/n at 4° C. After extensive washing in PBS/0.05% Tween 20, plates were blocked in PBS/0.05% Tween 20/1% BSA fraction V (Roche) for 1 hour at RT. […] After extensive washing in PBS/0.05% Tween 20, binding of antibodies was determined with 1:5000 diluted horseradish peroxidase-conjugated goat anti-human IgG Fcγ-specific antibodies (Jackson ImmunoResearch) for 1 hour at RT, followed by a ready-to-use solution of TMB substrate (Invitrogen) for colorimetric detection. After adding 1 M H₂SO₄, optical densities was measured at a wavelength of 450 nm (reference wavelength of 655 nm) using a microplate reader (BioRad).

The target of assay [6] is T5, human CD134-derived peptide (truncated CRD3 A1-module-CRD4 subdomain A1-module) (human).
T5 construct: Synthesized by Pepscan Presto; coated on ELISA plates
T5 peptide: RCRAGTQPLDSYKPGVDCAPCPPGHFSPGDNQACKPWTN
Nature of the assay: peptide ELISA, 10 ng/well peptide coated. The method, then: as §2, §3

Assay [7] addresses T1, human CD134 (full-length, on cells). The assay is described as follows: flow cytometry, stable CD134 293-F clone no. 23. As to the method: (§4) Full-length human CD134 (SEQ ID NO. 1) was re-cloned in a pcDNA3.1-derived expression plasmid (see Example 11 (d) below). […] After extensive washing in PBS/BSA/NaN₃, cells were subsequently incubated with 1:200 diluted PE-conjugated goat anti-mouse IgG (Fcγ specific) antibodies (Jackson ImmunoResearch) or with 1:200 diluted PE-conjugated goat anti-human IgG (Fcγ specific) antibodies (Jackson ImmunoResearch) for 30 minutes at 4° C. After extensive washing in PBS/BSA/NaN₃, cells were fixed in 2% formaldehyde in PBS/BSA/NaN₃ for 30 minutes at 4° C. Binding of antibodies was measured using flow cytometry (FACSCalibur; BD Biosciences).

In assay [8] the target is T2, recombinant human CD134:human Fcγ …. The assay is described as follows: competition ELISA, plate-bound CD134:Fc; competitor biotinylated mouse 12H3 at 20 ng/mL. The method, then:
Ninety six-wells flat-bottom ELISA plates (Corning) were coated with 50 ng/well recombinant human CD134:human Fcγ (IgG1) fusion protein (R&D Systems) in PBS o/n at 4° C. After extensive washing in PBS/0.05% Tween 20, plates were blocked in PBS/0.05% Tween 20/1% BSA fraction V (Roche) for 1 hour at RT. […] After adding 1 M H₂SO₄, optical densities were measured at a wavelength of 450 nm (reference wavelength of 655 nm) using a microplate reader (BioRad).

The target in assay [9] is T1, human CD134 (full-length, on cells). The assay is described as follows: competition flow cytometry, stable CD134 293-F clone no. 5; competitor biotinylated mouse 12H3 at 700 ng/mL. As to the method: Full-length human CD134 (SEQ ID NO1) was re-cloned in a pcDNA3.1-derived expression plasmid (see Example 11 (c) above). […] After extensive washing in PBS/BSA/NaN₃, cells were fixed in 2% formaldehyde in PBS/BSA/NaN₃ for 30 minutes at 4° C.

Assay [10] has the same target. Nature of the assay: flow cytometry, stable CD134 293-F clone no. 5. The method, then: as §4
The target of assay [11] is T6, truncated human CD134 'CRD3' construct (human, UniProt P43489 108-277).
T6 construct: also called truncated human CD134 variant that lacked CRD1-CRD2
T6 sequence: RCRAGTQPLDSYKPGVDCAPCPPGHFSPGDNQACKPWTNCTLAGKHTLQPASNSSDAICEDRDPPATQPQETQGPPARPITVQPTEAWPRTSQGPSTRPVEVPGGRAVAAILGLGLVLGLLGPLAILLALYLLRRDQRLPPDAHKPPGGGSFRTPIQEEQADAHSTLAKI
Nature of the assay: flow cytometry, transiently transfected 293-F cells, 20.0 µg/mL. The method, then:
as §1, with “48” for “48-72”, “PBS/BSA/NaN₃ supplemented with 50 μg/mL purified human IgG (Sigma; blocking Fey receptors).” for “PBS/BSA/NaN₃.”, “goat anti-mouse IgG (Fcγ specific) antibodies (Jackson ImmunoResearch) or with 1:200 diluted PE-conjugated goat” for “goat”, “anti-human IgG (Fcγ specific) antibodies (Jackson ImmunoResearch) for 30 minutes at 4° C. […] After extensive washing in PBS/BSA/NaN₃, cells were subsequently incubated with 1:200 diluted PE-conjugated goat anti-mouse” for “anti-human”

Assay [12] addresses T7, truncated human CD134 'CRD4' construct (human, UniProt P43489 127-277).
T7 construct: also called truncated human CD134 variant that lacked CRD1-CRD2-truncated CRD3 A1-module
T7 sequence: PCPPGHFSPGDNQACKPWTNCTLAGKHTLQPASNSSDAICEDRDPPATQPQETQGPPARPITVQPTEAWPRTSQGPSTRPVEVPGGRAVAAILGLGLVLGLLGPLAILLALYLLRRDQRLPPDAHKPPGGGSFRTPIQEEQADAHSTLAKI
Described as above. The method, then: as §1, with “48” for “48-72”, “PBS/BSA/NaN₃ supplemented with 50 μg/mL purified human IgG (Sigma; blocking Fey receptors).” for “PBS/BSA/NaN₃.”, “goat anti-mouse IgG (Fcγ specific) antibodies (Jackson ImmunoResearch) or with 1:200 diluted PE-conjugated goat” for “goat”, “anti-human IgG (Fcγ specific) antibodies (Jackson ImmunoResearch) for 30 minutes at 4° C. […] After extensive washing in PBS/BSA/NaN₃, cells were subsequently incubated with 1:200 diluted PE-conjugated goat anti-mouse” for “anti-human”

What is called EC50 is the concentration that produces a half-maximal response. The term IC50 denotes the concentration that inhibits the measured activity by half.

B1: polyhistidine-tagged recombinant human OX40 ligand (ligand, UniProt P23510 51-183, looked up)
chain: QVSHRYPRIQSIKVQFTEYKKEKGFILTSQKEDEIMKVQNNSVIINCDGFYLISLKGYFSQEVNISLHYQKDEEPLFQLKKVRSVNSLMVASLTYKDKVYLNVTTDNTSLDDFHVNGGELILIHQNPGEFCVL
notes: Bought; used together with mouse anti-polyhistidine antibody (clone AD1.1.10); also called CD252; not shown: polyhistidine tag
On to B1, for which the binding result in assay [1] is reported as “binds”.

B2: chimeric human IgG4κ anti-human CD134 antibody clone 20E5 (antibody, V domains shown)
VH: EVQLQQSGPELVKPGASVKMSCKASGYTFTSYVMHWVKQKPGQGLEWIGYINPYNDGTKYNEKFKGKATLTSDKSSSTAYMELSSLTSEDSAVYYCANYYGSSLSMDYWGQGTSVTVSS
VL: DIQMTQTTSSLSASLGDRVTISCRASQDISNYLNWYQQKPDGTVKLLIYYTSRLHSGVPSRFSGSGSGTDYSLTISNLEQEDIATYFCQQGNTLPWTFGGGTKLEIKR
notes: Murine V-regions linked to human IgG4 and human kappa constant regions
On to B2, for which the figures for the half-maximal effective concentration (EC50) in assay [2] and in assay [3] were about 0.1 µg/mL and about 1 µg/mL, respectively.

B3: chimeric human IgG4κ anti-human CD134 antibody clone 12H3 (antibody, V domains shown)
VH: EVQLQQSGPELVKPGASVKISCKTSGYTFKDYTMHWVKQSHGKSLEWIGGIYPNNGGSTYNQNFKDKATLTVDKSSSTAYMEFRSLTSEDSAVYYCARMGYHGPHLDFDVWGAGTTVTVSP
VL: DIVMTQSHKFMSTSLGDRVSITCKASQDVGAAVAWYQQKPGQSPKLLIYWASTRHTGVPDRFTGGGSGTDFTLTISNVQSEDLTDYFCQQYINYPLTFGGGTKLEIKR
notes: Murine V-regions linked to human IgG4 and human kappa constant regions; also called chimeric 12H3 (human IgG4/κ)
Turning to B3, the results for the binding result in assay [4], in assay [5] and in assay [6] were “no binding (tested: 20.0 µg/mL)”, “no binding (tested: 50.0 µg/mL)” and “binds”, respectively. Besides, the half-maximal effective concentration (EC50) in assay [2] was about 0.1 µg/mL; in assay [7] it was over 0.2 µg/mL. Besides, the half-inhibitory concentration (IC50) in assay [8] is about 0.75 µg/mL; in assay [9] it was about 3.5 µg/mL.

B4: humanized IgG4κ anti-human CD134 antibody clone 20E5 version 20E5_VL1VH1 (antibody, V domains shown)
VH: QVQLVQSGAEVKKPGASVKVSCKASGYTFTSYVMHWVRQAPGQRLEWMGYINPYNDGTKYNEKFKGRVTITSDTSASTAYMELSSLRSEDTAVYYCANYYGSSLSMDYWGQGTLVTVSS
VL: DIQMTQSPSSLSASVGDRVTITCRASQDISNYLNWYQQKPGKAPKLLIYYTSRLHSGVPSRFSGSGSGTDYTLTISSLQPEDFATYYCQQGNTLPWTFGQGTKVEIKR
notes: Stabilized human IgG4 (Angal et al.)/κ; also called 20E5_VL1H1; VL1H1
Consider B4, for which the binding result in [10], in assay [11] and in assay [12] was “binds” in each case. Besides, the EC50 in [2] is about 0.15 µg/mL.
